Test results: the RNAGym collection of RNA variant scans (doi:10.1073/pnas.2313332121)

B1: TPR t1 (parent)
chain: GACCAAUCUGCCCUCAGAGCUCGAGAACAUCUUCGGAUGCAGAGGAGGCAGGCUUCGGUGGCGCGAUAGCGCCAACGUCCUCAACCUCCAAUGCAUCCCACCACAUGAUGAUGCCUGAAGAGCCUUGGUUUUUUG

Variants of: B1
Test: polymerase ribozyme fitness, log enrichment relative to wild type (log ratio); higher = more active; in vitro selection for triplet polymerase activity
Procedure, shortened: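 One round of in vitro selection, in triplicate, was applied to PCR-built, transcribed mutant libraries of each subunit of a heterodimeric triplet polymerase ribozyme. The steps were annealing with a biotinylated primer, partner subunit and triplets, incubation frozen at −7 °C, gel excision of extended constructs, streptavidin-bead capture and RT-PCR. Fitness is the logarithm, base 2, of genotype enrichment over wild-type enrichment from inverse-variance-weighted replicate averages of Illumina-sequenced inputs and outputs, keeping genotypes with ≥10 input reads and ≥1 read per output.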

| Variant | polymerase ribozyme fitness (log ratio) |
| --- | --- |
| GACCAAUCUGCCCUCAGAGCUCGAGAACAUCUUCGGAUGCAGAGGUGGCAGGCUUCGGUGGCGCGAUAGCGCCAACGUUCUUAACCUCCAAUGCAUCCCACCACAUGAUUAUGCCUGAAGAGCCUUGGUUUUUUA [A46U C79U C82U G110U G135A] | -3.2 |
| GACCAAUCUGCCCUCAGAGCUCGAGAACAUCUUCGGAUGCAGAGGUGGCAGGCUUCGGUGGCACGAUAGCGCCAACGUCCUCAAGCUCCAAUGCAUCCCACCACAUGAUGAUGCCUGAAGCGCCUUGGUUUUUUG [A46U G63A C85G A121C] | -1.37 |
| GACCAAUCUGCCCUCAGAGCUCGAGAACAUCUUCGGAUGCAGAGGUGUCAGGCUUCGGUGGCGCGAUAGCGCCAACGUCCUCAACCUCCAAUGCAUCCCACCACAUGAUGAGGCCUGAAGAGCCUUGGUUUUUUC [A46U G48U U112G G135C] | -3.81 |
| GACCAAUCUGCCCUCAGAGCUCGAGAACAUCUUCGGAUGCAGAGGUGGCAGGCUUCGGUGGCCCGAUAGCGCCAAAGUCCUCAAACUCCAAUGCAUCCCACCACAUGAUGAUGCGUGAAGAGCCUUGGUUUUUUG [A46U G63C C76A C85A C115G] | -5.34 |
| GACCAAUCUGCCCUCAGAGCUCGAGAACAUCUUCGGAUGCAGAGGUGGCAGGCUUCGGUGGCGCGAUAGCUCCAACGUCCUCAACCUCUAAUGCAUCCCACCACAUGAUGAUGCAUGAAGAGCCUUGGUUUUUUG [A46U G71U C89U C115A] | -2.17 |
| GACCAAUCUGCCCUCAGAGCUCGAGAACAUCUUCGGAUGCAGAGGUGGCAGGCUUCGGUGGCGUGUUAGCGCCAACGUCCUCAACCUCCAAUGCAUCCCACCACAUGAUGAUGCCUGAAGAGCCUUGGUUUUUUG [A46U C64U A66U] | -2.06 |
| GACCAAUCUGCCCUCAGAGCUCGAGAACAUCUUCGGAUGCAGAGGUGGCAGGCUUCGGUGGCGGGAUAGCGCCAACGUCCUCAACCUCCAAUGCAUCCCACCACAUGAUGAUGCCUGAAGAGGAUUGGUUUUUUG [A46U C64G C123G C124A] | -5.93 |
| GACCAAUCUGCCCUCAGAGCUCGAGAACAUCUUCGGAUGCAGAGGUGGCAGGCUUCGGUGGCGCGAUAGCGUCAACGUCCUCAACCUCCAAUGCAACCCACCACAUGAUGAUGCCUGAAAAGCCUUGGUUUUUUG [A46U C72U U96A G120A] | -1.15 |
| GACCAAUCUGCCCUCAGAGCUCGAGAACAUCUUCGGAUGCAGAGGUGGCAGGCUUCGGUGGCGCGAUAGCUCCAACGUCCUCAACCUCCAAUGCAUCCCACCACAUGAUAAUGCCUGAAGAGCCUUGGUUUUUUG [A46U G71U G110A] | -2.84 |
| GACCAAUCUGCCCUCAGAGCUCGAGAACAUCUUCGGAUGCAGAGGUGGCAGGCUUCGGUGGUGCGAUAGCGCCAACGUCCUCAACCUCCAAUGCAUCCCACCACAUGAUGAUGCCUGAAGAGCCUUGGUUUUUUG [A46U C62U] | -1.12 |
| GACCAAUCUGCCCUCAGAGCUCGAGAACAUCUUCGGAUGCAGAGGUGGCAGGCUUCGGUCGCGCGAUAGCGCCAACGUCCUCAACCUCCAAUGCAUCCCACCACAUGAUGAUGCCUGAAGAGCCUUGGUUUUUUG [A46U G60C] | -0.894 |
| GACCAAUCUGCCCUCAGAGCUCGAGAACAUCUUCGGAUGCAGAGGUGGCAGGCUUCGGUGGCGCGAUAGCGCCAACGUCCUCAACCUCUAAUGCAUCCCACCACAUGAUGAUGCCUGAAGAGCCUUGGUUUUUUG [A46U C89U] | -2.66 |
| GACCAAUCUGCCCUCAGAGCUCGAGAACAUCUUCGGAUGCAGAGGUGGCAGGCUUCGGUCGCGCGAUAGCGCCAACGUCCUCAACCUCCAAUCCAUCCCACCACAUGAUGAUCCCUGAAGCGCCUUGGUUUUUUG [A46U G60C G93C G113C A121C] | -4.8 |
| GACCAAUCUGCCCUCAGAGCUCGAGAACAUCUUCGGAUGCAGAGGUGGCAGGCUUCGGUGGCGCGAUAGCGCCAACGUCCUCAACCUCCAAUACAUCCCACCACAUGAUGAUGCCUGAGGAGCCUUGGUUUAUUG [A46U G93A A119G U132A] | -1.15 |
| GACCAAUCUGCCCUCAGAGCUCGAGAACAUCUUCGGAUGCAGAGGUGGCAGGCUUCGGUGGCGCGAUAGCGCCAACGUCCUCAACAUCCAAUGCAUCCCACCACAUGAUGAUGCCUGGAGAGCCUUGGUUUUUUG [A46U C86A A118G] | -0.968 |
| GACCAAUCUGCCCUCAGAGCUCGAGAACAUCUUCGGAUGCAGAGGUGGCAGUCUUCGGUGGCGCGGUAGCGCCAACGUCCUCAACCUCCAAUGCAUCCCACCAUAUGAUAAUGCCUGAAGAGCCUUGGUUUUUUG [A46U G52U A66G C104U G110A] | -5.89 |
| GACCAAUCUGCCCUCAGAGCUCGAGAACAUCUUCGGAUGCAGAGGUGGCAGGCUUCGGUGGCGCGAUAUCGCCAACGUCCUCAACCUCCAUUGCAUCCCACCGCAAGAUGAUGUCUGAAGAGCCUUGGUUGUUUG [A46U G69U A91U A103G U106A C114U U131G] | -5.56 |
| GACCAAUCUGCCCUCAGAGCUCGAGAACAUCUUCGGAUGCAGAGGUGGCAGGCUUCGGUGGCGCGAUAGCGCCAACGUCCUCAACCUCCAAUGCAUACGACCACAUGAUGAUGCCUCAAGAGCCUUGGUUUUUUG [A46U C97A C99G G117C] | -7.9 |
| GACCAAUCUGCCCUCAGAGCUCGAGAACAUCUUCGGAUGCAGAGGUGACAGACUUCGGUGGAGCGAUAGCGCCAACGUCCUCAACCUUCAAUGCAUCCCACCACAUGAUGAUGCCUGAAGAGCUUUGGUUUUUUG [A46U G48A G52A C62A C88U C124U] | -7.18 |
| GACCAAUCUGCCCUCAGAGCUCGAGAACAUCUUCGGAUGCAGAGGUGGCAGGCUUCGGUGGCGCGAUAGCCCUAACGUCCUCAACCUCCAAUGCAUCCCACCACAUGAUGAUGCCUGAAGAGCCUUGGUUUUUUG [A46U G71C C73U] | -3.63 |
| GACCAAUCUGCCCUCAGAGCUCGAGAACAUCUUCGGAUGCAGAGGUGGCAGGCUUCGGUGGUGCGAUAGCGCCAACGUCCUCAACCUCCAAUGCAUCCCACCACAUGAUGAUACCUGAAGAGCCUUGGUUUUUUG [A46U C62U G113A] | -2.45 |
